Laboratory results: doi:10.1101/544239 (bioRxiv, 2019)

How the values were obtained:
[1] = target: T1, Helicobacter pylori histidine kinase CheA, strain G27 (Helicobacter pylori (G27 strain), UniProt B5Z859 1-807); assay: kinase activity titration
T1 sequence (looked up): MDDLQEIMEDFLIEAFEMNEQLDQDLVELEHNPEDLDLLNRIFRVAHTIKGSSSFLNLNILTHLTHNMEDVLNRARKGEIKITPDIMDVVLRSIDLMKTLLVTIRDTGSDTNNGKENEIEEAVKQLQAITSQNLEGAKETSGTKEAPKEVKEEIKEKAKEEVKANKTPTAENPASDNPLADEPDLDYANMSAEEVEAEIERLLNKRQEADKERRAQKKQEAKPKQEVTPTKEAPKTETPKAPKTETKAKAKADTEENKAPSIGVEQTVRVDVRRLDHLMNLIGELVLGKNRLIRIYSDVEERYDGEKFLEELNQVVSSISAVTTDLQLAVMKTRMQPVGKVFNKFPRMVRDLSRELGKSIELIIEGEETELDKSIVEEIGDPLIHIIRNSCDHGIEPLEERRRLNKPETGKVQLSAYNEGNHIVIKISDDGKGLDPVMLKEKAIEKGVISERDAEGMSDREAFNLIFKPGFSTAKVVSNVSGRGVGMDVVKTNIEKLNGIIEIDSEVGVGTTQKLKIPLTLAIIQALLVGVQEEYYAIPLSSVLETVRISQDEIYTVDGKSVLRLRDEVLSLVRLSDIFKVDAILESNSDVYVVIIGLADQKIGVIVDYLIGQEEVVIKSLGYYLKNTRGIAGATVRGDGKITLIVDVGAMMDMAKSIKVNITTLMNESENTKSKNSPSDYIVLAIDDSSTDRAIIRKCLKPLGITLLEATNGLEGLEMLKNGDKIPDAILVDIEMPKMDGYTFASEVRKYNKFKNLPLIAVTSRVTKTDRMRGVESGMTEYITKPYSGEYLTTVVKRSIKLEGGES

AUC = target: the molecule itself; assay: AUC
[2] = target: T2, CheW-CheA complex of Helicobacter pylori (Helicobacter pylori (G27 strain) | …, UniProt B5Z859 1-807; O25152 1-165); assay: kinase activity titration
T2 sequence (looked up) 1: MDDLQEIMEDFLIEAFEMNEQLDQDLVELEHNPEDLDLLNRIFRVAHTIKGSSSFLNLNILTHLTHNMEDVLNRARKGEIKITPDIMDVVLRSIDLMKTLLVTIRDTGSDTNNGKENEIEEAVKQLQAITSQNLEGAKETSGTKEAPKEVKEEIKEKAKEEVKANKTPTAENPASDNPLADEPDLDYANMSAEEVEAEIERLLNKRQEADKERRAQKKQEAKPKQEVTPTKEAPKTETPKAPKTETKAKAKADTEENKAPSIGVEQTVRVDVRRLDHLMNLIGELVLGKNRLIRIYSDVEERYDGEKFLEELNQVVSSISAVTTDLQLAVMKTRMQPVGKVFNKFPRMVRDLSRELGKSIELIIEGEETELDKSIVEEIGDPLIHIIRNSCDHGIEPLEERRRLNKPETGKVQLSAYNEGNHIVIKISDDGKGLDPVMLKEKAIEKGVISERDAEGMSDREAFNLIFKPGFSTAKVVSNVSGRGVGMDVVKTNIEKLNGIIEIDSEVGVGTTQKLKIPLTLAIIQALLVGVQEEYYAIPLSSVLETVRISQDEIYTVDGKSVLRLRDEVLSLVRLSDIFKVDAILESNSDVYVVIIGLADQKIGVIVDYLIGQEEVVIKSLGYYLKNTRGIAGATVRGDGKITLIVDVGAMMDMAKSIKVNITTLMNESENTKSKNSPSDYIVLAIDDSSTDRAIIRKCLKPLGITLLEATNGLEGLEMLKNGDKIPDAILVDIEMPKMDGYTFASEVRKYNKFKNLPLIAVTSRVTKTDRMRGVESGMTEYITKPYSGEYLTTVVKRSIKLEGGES
T2 sequence (looked up) 2: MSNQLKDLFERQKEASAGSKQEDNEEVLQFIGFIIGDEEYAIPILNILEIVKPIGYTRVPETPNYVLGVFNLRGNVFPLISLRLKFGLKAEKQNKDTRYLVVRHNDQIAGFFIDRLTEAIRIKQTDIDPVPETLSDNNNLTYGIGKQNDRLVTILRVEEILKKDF

Row | Binder | Kd [1] [µM] | Kd (AUC) [µM] | stoichiometry N (AUC) | Kd [2] [µM]
1 | Helicobacter pylori scaffold protein CheW, strain SS1 (natural protein, Helicobacter pylori (SS1 strain), UniProt O25152 1-165, looked up) MSNQLKDLFERQKEASAGSKQEDNEEVLQFIGFIIGDEEYAIPILNILEIVKPIGYTRVPETPNYVLGVFNLRGNVFPLISLRLKFGLKAEKQNKDTRYLVVRHNDQIAGFFIDRLTEAIRIKQTDIDPVPETLSDNNNLTYGIGKQNDRLVTILRVEEILKKDF | 14.6 | – | – | –
2 | Helicobacter pylori transducer-like protein D (TlpD), strain SS1 (receptor) not shown | – | 0.15 | 2 | 15.2
